Experimental data reported in patent US20250236663A1 (NEURACLE SCIENCE, published 2025).

Experiments:
[1] = target: T1, FAM19A5 fragment 5 mutant peptide F5-4 (#4) (human); experiment: ELISA on alanine-substituted F5 peptides (I16 to alanine)
T1 construct: The entry already carries the alanine substitution and Ser for Cys; also called mutant peptide #4
Method: Overlapping peptide fragments (F1-F6, see FIG. 9) of the human FAM19A5 protein were synthesized and conjugated to BSA. Binding of the different anti-FAM19A5 antibodies to the BSA-conjugated peptide fragments F1-F6 was determined by Western blot analysis or ELISA assay. For the Western blot analysis, BSA-conjugated FAM19A5 fragments F1-F6 were separated by SDS polyacrylamide gel electrophoresis and transferred to a nitrocellulose membrane by the standard procedure. The membrane was incubated with the anti-FAM19A5 antibody (e.g., 1-65, 2 μg/ml, 1-65-scFv-rabbit Fc-SSS), and the antigen-antibody complexes were detected with the appropriate secondary antibody conjugated with horse-radish peroxidase (anti-rabbit IgG (Fc specific)-HRP, 1:4000 dilution). For the ELISA assay, the following protocol was used. FAM19A5 fragment F1-F6 (diluted to 1 μg/mL in 50 mM carbonate buffer (Biosesang) or to 20 μg/mL for high concentration analysis) were used to coat the wells of 96-well immuno plates (Thermo Scientific) (100 μL/well) overnight at 4° C. and then subsequently washed twice in 1×PBS. The plates were then blocked with the blocking buffer (100 μL/well) for 1 hour at room temperature. […] The absorption value of each of the wells was detected at 492 nm using a 96-well microplate reader (Molecular Device). […]

[2] = target: T2, FAM19A5 fragment 5 mutant peptide F5-1 (#1) (human); experiment: ELISA on the coated F5 mutant peptide
T2 construct: The entry already carries the alanine substitution and Ser for Cys; also called mutant peptide #1
T2 peptide: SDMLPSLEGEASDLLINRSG
Method: (§1) Overlapping peptide fragments (F1-F6, see FIG. 9) of the human FAM19A5 protein were synthesized and conjugated to BSA. Binding of the different anti-FAM19A5 antibodies to the BSA-conjugated peptide fragments F1-F6 was determined by Western blot analysis or ELISA assay. For the Western blot analysis, BSA-conjugated FAM19A5 fragments F1-F6 were separated by SDS polyacrylamide gel electrophoresis and transferred to a nitrocellulose membrane by the standard procedure. The membrane was incubated with the anti-FAM19A5 antibody (e.g., 1-65, 2 μg/ml, 1-65-scFv-rabbit Fc-SSS), and the antigen-antibody complexes were detected with the appropriate secondary antibody conjugated with horse-radish peroxidase (anti-rabbit IgG (Fc specific)-HRP, 1:4000 dilution). For the ELISA assay, the following protocol was used. FAM19A5 fragment F1-F6 (diluted to 1 μg/mL in 50 mM carbonate buffer (Biosesang) or to 20 μg/mL for high concentration analysis) were used to coat the wells of 96-well immuno plates (Thermo Scientific) (100 μL/well) overnight at 4° C. and then subsequently washed twice in 1×PBS. The plates were then blocked with the blocking buffer (100 μL/well) for 1 hour at room temperature. During the 1-hour incubation, the relevant anti-FAM19A5 antibodies were diluted to 1 μg/mL (or 20 μg/mL for high concentration analysis) in the diluent buffer. Once the plates were washed (2× using 1×PBS), the diluted anti-FAM19A5 antibodies were added to the appropriate wells, and the plates were incubated at room temperature for 1 hour. The plates were subsequently washed for a total of five times using the washing buffer. Next, the ODP substrate (prepared by dissolving one ODP tablet (O-phenylenediamine Dihydrochloride, Thermo) into 9 mL of sterilized deionized water and 1 mL of 10× stable Peroxide Stable buffer (Theromo)) was added to each of the wells, and the color change reaction was allowed to occur for 10 minutes. This reaction was stopped by adding 100 μL of 2N H2SO4 (Daejung) to the wells. The absorption value of each of the wells was detected at 492 nm using a 96-well microplate reader (Molecular Device).
(§2) Next, to identify the specific amino acid residues within the epitope fragment F5 that the 1-65 and P2-C12 antibodies bind to, different amino acid residues of the F5 fragment were replaced with alanine as shown in Table 9 (below).

[3] = target: T3, FAM19A5 fragment 5 mutant peptide F5-2 (#2) (human); experiment: ELISA on the coated F5 mutant peptide
T3 construct: The entry already carries the alanine substitution and Ser for Cys; also called mutant peptide #2
T3 sequence (peptide, as listed by the source mutant): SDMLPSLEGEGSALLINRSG
Method: as §1, §2

[4] = target: T4, FAM19A5 fragment 5 mutant peptide F5-3 (#3) (human); experiment: ELISA on the coated F5 mutant peptide
T4 construct: The entry already carries the alanine substitution and Ser for Cys; also called mutant peptide #3
T4 sequence (peptide, as listed by the source mutant): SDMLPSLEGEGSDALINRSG
Method: as §1, §2

[5] = target: T1, FAM19A5 fragment 5 mutant peptide F5-4 …; experiment: ELISA on the coated F5 mutant peptide
Method: as §1, §2

[6] = target: T5, FAM19A5 fragment 5 mutant peptide F5-5 (#5) (human); experiment: ELISA on the coated F5 mutant peptide
T5 construct: The entry already carries the alanine substitution and Ser for Cys; also called mutant peptide #5
T5 peptide: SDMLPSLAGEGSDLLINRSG
Method: as §1, §2

[7] = target: T6, FAM19A5 fragment 5 mutant peptide F5-6 (#6) (human); experiment: ELISA on the coated F5 mutant peptide
T6 construct: The entry already carries the alanine substitution and Ser for Cys; also called mutant peptide #6
T6 sequence (peptide, as listed by the source mutant): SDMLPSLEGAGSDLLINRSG
Method: as §1, §2

[8] = target: T7, FAM19A5 fragment 5 mutant peptide F5-7 (#7) (human); experiment: ELISA on the coated F5 mutant peptide
T7 construct: The entry already carries the alanine substitution and Ser for Cys; also called mutant peptide #7
T7 sequence (peptide, as listed by the source mutant): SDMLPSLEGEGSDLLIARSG
Method: as §1, §2

[9] = target: T8, FAM19A5 fragment 5 mutant peptide F5-8 (#8) (human); experiment: ELISA on the coated F5 mutant peptide
T8 construct: The entry already carries the alanine substitution and Ser for Cys; also called mutant peptide #8
T8 peptide: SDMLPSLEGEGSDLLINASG
Method: as §1, §2

FAM19A5 mutant M6 = target: T9, FAM19A5 mutant M6 (human); experiment: ELISA on phage-displayed FAM19A5 mutants; y axis without label
T9 construct: FAM19A5 with region 6 replaced by the consensus of FAM19A1-4; The entry already carries the changes
T9 chain: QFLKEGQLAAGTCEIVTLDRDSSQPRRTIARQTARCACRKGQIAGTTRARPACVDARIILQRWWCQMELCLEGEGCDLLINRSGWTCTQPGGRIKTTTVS

FAM19A5 mutant M7 = target: T10, FAM19A5 mutant M7 (human); experiment: as above
T10 construct: FAM19A5 with region 7 replaced by the consensus of FAM19A1-4; The entry already carries the changes
T10 chain: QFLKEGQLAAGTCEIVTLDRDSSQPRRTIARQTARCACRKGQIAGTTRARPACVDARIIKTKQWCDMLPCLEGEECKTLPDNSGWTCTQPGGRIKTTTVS

FAM19A5 mutant M8 = target: T11, FAM19A5 mutant M8 (human); experiment: as above
T11 construct: FAM19A5 with region 8 replaced by the consensus of FAM19A1-4; The entry already carries the changes
T11 chain: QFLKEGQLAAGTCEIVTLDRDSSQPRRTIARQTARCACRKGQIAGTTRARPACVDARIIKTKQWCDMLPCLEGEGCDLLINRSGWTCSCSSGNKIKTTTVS

FAM19A5-M1 = target: T12, FAM19A5-M1; experiment: ELISA on phage-displayed FAM19A5 mutants; y axis without label; IgG only bars 0.02 to 0.2
T12 construct: also called FAM19A5 mutant M1
T12 FAM19A5 mutant: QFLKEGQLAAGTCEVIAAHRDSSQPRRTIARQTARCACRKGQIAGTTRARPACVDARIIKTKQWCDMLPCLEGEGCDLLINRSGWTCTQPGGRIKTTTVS

T1 sequence (peptide, as listed by the source mutant): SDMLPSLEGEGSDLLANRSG

B1: chimeric anti-FAM19A5-IgG2/4 monoclonal antibody (1-65) (antibody, V domains shown)
VH: AVTLDESGGGLQTPGGALSLVCKASGFTFSSYQMGWVRQAPGKGLEWVGVINKSGSDTSYGSAVKGRATISRDNGQSTVRLQLNNLRAEDTGTYFCAKGSASYITAATIDAWGHGTEVIVSS
VL: ALTQPSSVSANPGETVKITCSGGGSSGYGYGWYQQKSPSSAPLTVIYWNDKRPSDIPSRFSGSKSGSTHTLTITGVQAEDEAVYFCGNDDYSSDSGYVGVFGAGTTLTVL
notes: Chicken-derived variable domains; also called anti-FAM19A5 antibody 1-65; Anti-FAM19A5 (1-65)
Q: Does B1 bind [1]?
A: no binding

Q: And the “O.D (492nm)” value [2]?
A: 1.5

Q: And the “O.D (492nm)” value [3]?
A: 0.155

Q: Does B1 bind [3]?
A: no binding

Q: And the “O.D (492nm)” value [4]?
A: 0.15

Q: Does B1 bind [4]?
A: no binding

Q: And the “O.D (492nm)” value [5]?
A: 0.688

Q: What about the “O.D (492nm)” value [6] of the same binder?
A: 1.57

Q: And the “O.D (492nm)” value [7]?
A: 1.41

Q: What about the “O.D (492nm)” value [8] of the same binder?
A: 1.64

Q: And the “O.D (492nm)” value [9]?
A: 0.181

Q: Does B1 bind [9]?
A: no binding

Q: Does B1 bind (FAM19A5 mutant M6)?
A: no binding

Q: Does B1 bind (FAM19A5 mutant M7)?
A: no binding

Q: Does B1 bind (FAM19A5 mutant M8)?
A: no binding

Q: Does B1 bind (FAM19A5-M1)?
A: binds
